From publication PMC10039853, “Increasing the melting temperature of VHH with the in silico free energy score” (Scientific Reports, 2023)
Residue numbers refer to the chain shown, from its start. Names may count otherwise.

B1: D3-L11 A24L (VHH)
VHH: DVQLVESGGGSVQAGGSLRLSCALSGSTDSIEYMTWFRQAPGKAREGVAALYTHTGNTYYTDSVKGRFTISQDKAKNMAYLRMDSVKSEDTAIYTCGATRKYVPVRFALDQSSYDYWGQGTQVTVSS
notes: as the VHH chain of Sm1 (D3-L11 wild type, PDB 6JB8) with A24L; SAG tripeptide linker before the C-terminal 6xHis tag; source: ExpiCHO, transient transfection, purified from supernatant (His Mag Sepharose excel); not shown: His6, C-terminal, kept
B2: D3-L11 A79H (VHH)
VHH: B1 VHH with L24A, A79H
notes: as the VHH chain of Sm1 (D3-L11 wild type, PDB 6JB8) with A79H; SAG tripeptide linker before the C-terminal 6xHis tag; source: ExpiCHO, transient transfection, purified from supernatant (His Mag Sepharose excel); not shown: His6, C-terminal, kept
B3: D3-L11 A79F (VHH)
VHH: B1 VHH with L24A, A79F
notes: as the VHH chain of Sm1 (D3-L11 wild type, PDB 6JB8) with A79F; SAG tripeptide linker before the C-terminal 6xHis tag; source: ExpiCHO, transient transfection, purified from supernatant (His Mag Sepharose excel); not shown: His6, C-terminal, kept
B4: D3-L11 A79Y (VHH)
VHH: B1 VHH with L24A, A79Y
notes: as the VHH chain of Sm1 (D3-L11 wild type, PDB 6JB8) with A79Y; SAG tripeptide linker before the C-terminal 6xHis tag; source: ExpiCHO, transient transfection, purified from supernatant (His Mag Sepharose excel); not shown: His6, C-terminal, kept
B5: D3-L11 A79T (VHH)
VHH: B1 VHH with L24A, A79T
notes: as the VHH chain of Sm1 (D3-L11 wild type, PDB 6JB8) with A79T; SAG tripeptide linker before the C-terminal 6xHis tag; source: ExpiCHO, transient transfection, purified from supernatant (His Mag Sepharose excel); not shown: His6, C-terminal, kept
B6: D3-L11 G26I (VHH)
VHH: B1 VHH with L24A, G26I
notes: as the VHH chain of Sm1 (D3-L11 wild type, PDB 6JB8) with G26I; SAG tripeptide linker before the C-terminal 6xHis tag; source: ExpiCHO, transient transfection, purified from supernatant (His Mag Sepharose excel); not shown: His6, C-terminal, kept
B7: D3-L11 A79M (VHH)
VHH: B1 VHH with L24A, A79M
notes: as the VHH chain of Sm1 (D3-L11 wild type, PDB 6JB8) with A79M; SAG tripeptide linker before the C-terminal 6xHis tag; source: ExpiCHO, transient transfection, purified from supernatant (His Mag Sepharose excel); not shown: His6, C-terminal, kept
B8: D3-L11 A79N (VHH)
VHH: B1 VHH with L24A, A79N
notes: as the VHH chain of Sm1 (D3-L11 wild type, PDB 6JB8) with A79N; SAG tripeptide linker before the C-terminal 6xHis tag; source: ExpiCHO, transient transfection, purified from supernatant (His Mag Sepharose excel); not shown: His6, C-terminal, kept
B9: D3-L11 A79S (VHH)
VHH: B1 VHH with L24A, A79S
notes: as the VHH chain of Sm1 (D3-L11 wild type, PDB 6JB8) with A79S; SAG tripeptide linker before the C-terminal 6xHis tag; source: ExpiCHO, transient transfection, purified from supernatant (His Mag Sepharose excel); not shown: His6, C-terminal, kept
B10: D3-L11 A79W (VHH)
VHH: B1 VHH with L24A, A79W
notes: as the VHH chain of Sm1 (D3-L11 wild type, PDB 6JB8) with A79W; SAG tripeptide linker before the C-terminal 6xHis tag; source: ExpiCHO, transient transfection, purified from supernatant (His Mag Sepharose excel); not shown: His6, C-terminal, kept
B11: D3-L11 A79I (VHH)
VHH: B1 VHH with L24A, A79I
notes: as the VHH chain of Sm1 (D3-L11 wild type, PDB 6JB8) with A79I; SAG tripeptide linker before the C-terminal 6xHis tag; source: ExpiCHO, transient transfection, purified from supernatant (His Mag Sepharose excel); not shown: His6, C-terminal, kept
B12: D3-L11 A79C (VHH)
VHH: B1 VHH with L24A, A79C
notes: as the VHH chain of Sm1 (D3-L11 wild type, PDB 6JB8) with A79C; SAG tripeptide linker before the C-terminal 6xHis tag; source: ExpiCHO, transient transfection, purified from supernatant (His Mag Sepharose excel); not shown: His6, C-terminal, kept
B13: D3-L11 A79L (VHH)
VHH: B1 VHH with L24A, A79L
notes: as the VHH chain of Sm1 (D3-L11 wild type, PDB 6JB8) with A79L; SAG tripeptide linker before the C-terminal 6xHis tag; source: ExpiCHO, transient transfection, purified from supernatant (His Mag Sepharose excel); not shown: His6, C-terminal, kept
B14: anti-lysozyme VHH D3-L11, wild type (VHH)
VHH: B1 VHH with L24A
notes: anti-hen egg lysozyme VHH D3-L11, 127 amino acids; A SAG tripeptide linker stands between the VHH and the C-terminal 6xHis tag; also called WT; source: ExpiCHO, transient transfection, purified from supernatant (His Mag Sepharose excel); not shown: His6, C-terminal, kept
B15: D3-L11 G97F (VHH)
VHH: B1 VHH with L24A, G97F
notes: as the VHH chain of Sm1 (D3-L11 wild type, PDB 6JB8) with G97F; SAG tripeptide linker before the C-terminal 6xHis tag; source: ExpiCHO, transient transfection, purified from supernatant (His Mag Sepharose excel); not shown: His6, C-terminal, kept
B16: D3-L11 A79V (VHH)
VHH: B1 VHH with L24A, A79V
notes: as the VHH chain of Sm1 (D3-L11 wild type, PDB 6JB8) with A79V; SAG tripeptide linker before the C-terminal 6xHis tag; source: ExpiCHO, transient transfection, purified from supernatant (His Mag Sepharose excel); not shown: His6, C-terminal, kept
B17: D3-L11 A79Q (VHH)
VHH: B1 VHH with L24A, A79Q
notes: as the VHH chain of Sm1 (D3-L11 wild type, PDB 6JB8) with A79Q; SAG tripeptide linker before the C-terminal 6xHis tag; source: ExpiCHO, transient transfection, purified from supernatant (His Mag Sepharose excel); not shown: His6, C-terminal, kept

Molecular target: T1, hen egg lysozyme (Gallus gallus (hen egg white), UniProt P00698)
T1 construct: hen egg lysozyme (HEL), the antigen of D3-L11; also in PDB 6JB8; The supplier is named for the ELISA only; also called HEL; antigen lysozyme; source: bought: Sigma-Aldrich, Cat No. L6876
T1 sequence (P00698 19-147): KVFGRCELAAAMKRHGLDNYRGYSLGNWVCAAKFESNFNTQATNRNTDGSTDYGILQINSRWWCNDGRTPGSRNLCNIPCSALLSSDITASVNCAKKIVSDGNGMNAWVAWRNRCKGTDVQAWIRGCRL
Experiment: SPR; Biacore T200; lysozyme immobilised on Sensor Chip CM5 by amine coupling (200 RU); VHH injected 300 s, dissociation 600 s in PBST (PBS, 0.005% Tween 20); 1:1 binding model; duplicate
Conditions: both partners purified

Binder	Kd [pM]
B1	43.6 ± 1.3
B2	23.1
B3	12.1 ± 0.2
B4	5.57 ± 0.04
B5	13.1 ± 0.4
B6	25 ± 0.3
B7	6.91 ± 0.1
B8	8.04 ± 0.07
B9	11.7
B10	14.9 ± 0.1
B11	4.92 ± 0.12
B12	3.74 ± 0.03
B13	6.54 ± 0.03
B14	3.17 ± 0.19
B15	6 ± 0.4
B16	3.66 ± 0.13
B17	7.2 ± 0.03
